# Results: publication doi:10.1101/2025.06.10.658772 (bioRxiv, 2025)
# T1: C-terminally large NanoLuc fragment (LgBiT)-fused Dr-GPR25 (zebrafish (Danio rerio), UniProt A0AC58GT18 1-377)
# T1 sequence: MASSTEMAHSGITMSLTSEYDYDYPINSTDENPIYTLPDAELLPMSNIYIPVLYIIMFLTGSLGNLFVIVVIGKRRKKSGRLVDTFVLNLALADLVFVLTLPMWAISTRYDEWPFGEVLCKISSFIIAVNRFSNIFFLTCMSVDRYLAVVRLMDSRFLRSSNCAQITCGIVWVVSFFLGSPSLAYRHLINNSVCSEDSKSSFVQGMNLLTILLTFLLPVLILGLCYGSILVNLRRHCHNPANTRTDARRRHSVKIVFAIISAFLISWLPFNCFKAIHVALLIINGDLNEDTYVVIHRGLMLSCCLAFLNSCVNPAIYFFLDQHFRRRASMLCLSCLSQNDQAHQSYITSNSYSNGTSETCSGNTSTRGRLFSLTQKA
# T2: C-terminally LgBiT-fused Lc-GPR25 (coelacanth (Latimeria chalumnae), UniProt H3AQL3 1-365)
# T2 sequence: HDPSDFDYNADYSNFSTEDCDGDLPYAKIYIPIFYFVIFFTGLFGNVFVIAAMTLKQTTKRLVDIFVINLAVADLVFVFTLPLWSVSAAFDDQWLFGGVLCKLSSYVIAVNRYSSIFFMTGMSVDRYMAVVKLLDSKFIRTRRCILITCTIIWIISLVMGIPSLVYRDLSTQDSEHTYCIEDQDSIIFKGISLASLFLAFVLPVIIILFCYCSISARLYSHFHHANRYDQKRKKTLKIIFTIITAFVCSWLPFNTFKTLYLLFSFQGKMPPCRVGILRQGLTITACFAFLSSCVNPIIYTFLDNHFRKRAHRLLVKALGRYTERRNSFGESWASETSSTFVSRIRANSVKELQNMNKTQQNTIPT
# B1: N-terminally 6×His-tagged wild-type (WT) human CXCL17 (ligand)
# chain: SSLNPGVARGHRDRGQASRRWLQEGGQECECKDWFLRAPRRKFMTVSGLPKKQCPCDHFKGNVKKTRHQRHHRKPNKHSRACQQFLKQCQLRSFALPL
# Key:
# [1] = molecular target: T1, C-terminally large NanoLuc fragment …; test: cell-based or functional assay
# [2] = molecular target: T2, C-terminally LgBiT-fused Lc-GPR25; test: cell-based or functional assay
binder,measurement,setting,value
B1,"NanoBiT-based β-arrestin recruitment (SmBiT-ARRB2), EC50 of the dose curve",[1],~60 nM
same,"NanoBiT-based β-arrestin recruitment (SmBiT-ARRB2), maximal effect",[1],~5 fold over background
same,"NanoBiT-based β-arrestin recruitment (SmBiT-ARRB2), EC50 of the dose curve",[2],~300 nM
same,"NanoBiT-based β-arrestin recruitment (SmBiT-ARRB2), maximal effect",[2],~3 fold over background
